Reference: patent publication US20200079850A1 (SUTRO BIOPHARMA, published 2020)

T1: recombinant human LAG3 protein (rhLAG3), HIS-tagged (ACRO) or biotinylated (R&D Cat #2319-C3) (human, UniProt P18627 23-450, biotinylated in part of the assays)
T1 sequence: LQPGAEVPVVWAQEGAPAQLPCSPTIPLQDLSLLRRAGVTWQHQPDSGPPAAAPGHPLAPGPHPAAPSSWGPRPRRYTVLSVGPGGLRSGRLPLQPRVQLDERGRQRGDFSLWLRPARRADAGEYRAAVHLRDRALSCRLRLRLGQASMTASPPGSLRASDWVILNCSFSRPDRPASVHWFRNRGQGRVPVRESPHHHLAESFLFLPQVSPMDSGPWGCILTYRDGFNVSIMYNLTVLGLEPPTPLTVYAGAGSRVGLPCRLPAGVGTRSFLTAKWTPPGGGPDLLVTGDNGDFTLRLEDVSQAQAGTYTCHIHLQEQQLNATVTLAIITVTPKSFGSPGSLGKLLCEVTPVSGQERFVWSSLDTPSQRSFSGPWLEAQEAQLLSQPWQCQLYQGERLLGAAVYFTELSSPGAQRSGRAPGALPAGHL

T2: human LAG3 expressed on the cell surface (CHO-LAG3, 293T-LAG3 cells) (human, UniProt P18627 23-525)
T2 construct: Stably transfected CHO or HEK293T cells; also called Human LAG3 (CHO); Human LAG3 (293T)
T2 sequence: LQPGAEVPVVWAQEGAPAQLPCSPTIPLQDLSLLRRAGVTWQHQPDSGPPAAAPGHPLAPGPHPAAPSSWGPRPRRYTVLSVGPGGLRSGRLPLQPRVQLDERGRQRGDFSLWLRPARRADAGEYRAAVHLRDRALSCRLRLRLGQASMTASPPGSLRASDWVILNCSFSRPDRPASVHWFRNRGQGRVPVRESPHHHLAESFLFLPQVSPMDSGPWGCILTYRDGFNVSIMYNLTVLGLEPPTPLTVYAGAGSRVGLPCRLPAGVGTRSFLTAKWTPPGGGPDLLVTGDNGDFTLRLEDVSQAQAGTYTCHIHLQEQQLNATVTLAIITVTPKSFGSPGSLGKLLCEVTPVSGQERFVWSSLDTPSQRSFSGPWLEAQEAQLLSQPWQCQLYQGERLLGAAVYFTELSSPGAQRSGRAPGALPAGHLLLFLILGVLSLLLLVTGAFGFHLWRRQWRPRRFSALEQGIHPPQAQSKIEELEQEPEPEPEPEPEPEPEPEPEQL

T3: human LAG3-Fc (R&D Systems #2319-L3) (human, UniProt P18627 23-450)
T3 construct: Bought protein; also called Human LAG3 (Biacore)
T3 sequence: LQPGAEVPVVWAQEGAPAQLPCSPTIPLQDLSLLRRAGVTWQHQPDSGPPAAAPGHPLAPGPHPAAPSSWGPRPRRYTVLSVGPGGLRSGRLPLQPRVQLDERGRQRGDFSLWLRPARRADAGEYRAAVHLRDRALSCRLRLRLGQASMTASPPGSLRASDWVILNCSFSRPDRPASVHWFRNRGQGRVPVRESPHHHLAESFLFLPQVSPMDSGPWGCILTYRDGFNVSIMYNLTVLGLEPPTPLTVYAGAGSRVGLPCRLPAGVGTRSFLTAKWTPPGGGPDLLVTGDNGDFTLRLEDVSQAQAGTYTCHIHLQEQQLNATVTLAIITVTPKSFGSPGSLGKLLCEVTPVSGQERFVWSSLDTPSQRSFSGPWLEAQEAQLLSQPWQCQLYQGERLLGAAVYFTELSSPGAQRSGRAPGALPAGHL


Key:
[1] = target: T4, human PD-1 expressed on the surface of CHO cells (human, UniProt Q15116 25-288); experiment: flow cytometry, CHO-PD1 cells
T4 construct: I took it as human PD-1; also called CHO-PD1
T4 sequence (Q15116 25-288 limits assumed): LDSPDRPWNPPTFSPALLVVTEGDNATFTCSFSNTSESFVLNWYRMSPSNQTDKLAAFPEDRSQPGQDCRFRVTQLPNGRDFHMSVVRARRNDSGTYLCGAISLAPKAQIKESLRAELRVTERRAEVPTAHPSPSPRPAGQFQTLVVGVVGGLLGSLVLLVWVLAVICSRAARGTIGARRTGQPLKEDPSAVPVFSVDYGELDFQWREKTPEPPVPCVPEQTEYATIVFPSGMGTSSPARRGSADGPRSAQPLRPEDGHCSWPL
Experimental: CHO-k cells stably expressing PD-1 or LAG3 (human or cynomolgus) on the cell surface were used to assess binding affinity of anti-PD-1/LAG3 bispecific antibody constructs. Cells were seeded at 100,000 cells/well in 100 μL of FACS buffer (1×PBS, 0.5% BSA, 0.1% sodium azide) in 96-well polypropylene plates. The cells were centrifuged at 1.5K rpm and resuspended with test antibodies diluted in FACS buffer and incubated on ice for 1 hour. The cells were washed twice with FACS buffer and incubated on ice for 30 mins with R-Phycoerythrin-AffiniPure F(ab′)2 Fragment Goat Anti-Human IgG (H+L) secondary detection antibody (1:200 dilution, Jackson ImmunoResearch Laboratories, West Grove, Pa.). The cells were washed twice with FACS buffer, fixed in 4% paraformaldehyde in PBS (Santa Cruz Biotechnology; Dallas, Tex.) for 20 mins on ice in the dark, washed twice with FACS buffer, and analyzed using the BD LSR II Flow Cytometer (BD Biosciences; San Jose, Calif.). Data were analyzed using FlowJo (FlowJo, LLC; Ashland, Oreg.) to determine mean fluorescence intensities. Binding constants were calculated using the statistical software, GraphPad Prism (GraphPad Software; La Jolla, Calif.) using the nonlinear regression equation, one site—specific binding with Hill slope. The secondary antibody by itself was used as a control.

[2] = target: T1, recombinant human LAG3 protein …; experiment: flow cytometry competition, rhLAG3 binding to Daudi cells; competitor MHCII
Experimental: DAUDI cells express high levels of Major Histocompatibility Class II (MHCII) molecules, a natural ligand for LAG3, on the cell surface. DAUDI cells were used to screen for antibodies that inhibit binding of HIS-tagged (ACRO) or biotinylated recombinant human LAG3 protein (rhLAG3) to MHCII expressed on the cell surface.
DAUDI cells were cultured in RPMI w/10% FCS Pen/Strep and Gln and split every 3-4 days at 10^5 cells/ml. Cells were washed 2× with FACS buffer (PBS w/2% FCS), […] at a final concentration of 1×10⁶ cells/ml and seeded at 100 μl per well on 96 well polypropylene plates. Plates were spun at 1500 rpm for 5 minutes and cell pellets were suspended in 50 μl FACS buffer containing 8 point 1:3 dilutions (2× concentrated) of anti-LAG3 antibody variants, starting from high concentration of −600 nM. 50 μl FACS buffer containing 10-20 μg/ml of the HIS-tagged rhLAG3 protein or 40 μg/ml of the biotinylated rhLAG3 protein were then added to the cells. Cell were then incubated in ice for 1 hr, washed with FACS buffer and incubated for 1 hr in ice with 50 μl FACS buffer containing 2 μg/ml R-Phycoerythrin-conjugated Streptavidin (eBiosciences) or 1 μg/ml R-Phycoerythrin-conjugated anti-HIS IgG (Abcam). Cell were washed 2× with FACS buffer and fixed for 10 minutes in 200 μl PBS w/2% PFA prior to acquisition.

[3] = target: T2, human LAG3 expressed on the cell …; experiment: flow cytometry, CHO cells expressing human LAG3
Experimental: LAG3 antibody variants were tested in a fluorescence-activated cell sorting (FACS) cell-binding assay. Chinese Hamster Ovary (CHO) cells or HEK293T cells stably expressing the human target molecule LAG3 on the cell surface (CHO-LAG3, 293T-LAG3) were used to screen for cell binders by flow cytometry. Parental CHO or 293T cells were used as a negative control to determine background-binding levels. Cells were cultured in RPMI with 10% FCS Penicillin/Streptomycin (or Pen/Strep) and glutamine (or Gln) and split every 3-4 days at 10⁵ cells/ml.
A mix of parental CHO cells and CHO-LAG3 cells (or 293T and 293T-LAG3 cells) was prepared as follows: Parental CHO cells were washed 2× in PBS then incubated in PBS containing 1 nM CellTrace™ Oregon Green488® (Life Technologies) at 37° C. for 30 minutes. […] Parental CHO cells and CHO-LAG3 cells were then mixed to obtain a 1:1 cell suspension and seeded at 100 μl per well on 96 well polypropylene plates. Plates were spun at 1500 rpm for 5 minutes and cell pellets were suspended in 50 μl FACS buffer containing 6-12 point dilutions of anti-LAG3 variants starting from concentrations of ˜100-200 nM antibody, dispensed using BioMekFX (Beckman Coulter). Cells were then incubated on ice for 1 hr, washed with FACS buffer and incubated for 1 hr on ice with 50 μl FACS buffer containing 2.5 μg/ml R-Phycoerythrin-conjugated Goat Anti-Human IgG (Jackson ImmunoResearch) or AF647-conjugated Goat Anti-mouse IgG (Life Technologies) dispensed using BioMekFX (Beckman Coulter). Cells were then washed 2× with FACS buffer and fixed for 10 minutes in 200 μl PBS with 2% PFA prior to fluorescence detection. Samples were acquired using a Beckton Dickinson LSRII FACS. Mean Fluorescence Intensity of LAG3 antibody binding was analyzed using Tree Star, Inc. FlowJo® software.

[4] = target: T3, human LAG3-Fc (R&D Systems #2319-L3); experiment: SPR (Biacore), antibody captured by anti-Flag, LAG3-Fc as analyte, 25 C
Experimental: Anti-Flag M2 IgG (Sigma-Aldrich # F9291) was immobilized onto a CMS chip (GE Life Sciences) using amine coupling chemistry (from Amine Coupling Kit, GE Life Sciences). The immobilization steps were carried out at a flow rate of 25 μL/min in 1×HBS-EP+ buffer (GE Life Sciences; 10×Stock diluted before use). The sensor surfaces were activated for 7 min with a mixture of NHS (0.05 M) and EDC (0.2 M). The Anti-Flag M2 IgG was injected over all 4 flow cells at a concentration of 25 μg/mL in 10 mM sodium acetate, pH 4.5, for 7 min. Ethanolamine (1 M, pH 8.5) was injected for 7 min to block any remaining activated groups. An average of 12,000 response units (RU) of capture antibody was immobilized on each flow cell.
Off-rate and kinetic binding experiments were performed at 25° C. using 1×HBS-EP+buffer. Test and control antibodies were injected over the Anti-Flag surface at concentrations of 5-10 μg/mL for 12 seconds at a flow rate of 10 μL/min on flow cells 2, 3 and 4, followed by a buffer wash for 30 seconds at the same flow rate. Kinetic characterization of antibody samples was carried out with a single concentration of antigen (for off-rate ranking) or a dilution series of antigen (for kinetic characterization) and 1 injection of 0 nM antigen. After capturing ligand (antibody) on the anti-Flag surface, the analyte (human LAG3-Fc, R&D Systems #2319-L3; or cynomolgus LAG3-Fc, accession # NC 022282.1) was bound at 50, 25, 12.5, 6.25, and 0 nM for 180 seconds, followed by a 600 second dissociation phase at a flow rate of 50 μl/min Between each ligand capture and analyte binding cycle, regeneration was carried out using 2 injections of 10 mM glycine pH 2.0 for 30 seconds at 30 μL/min, followed by a 30 second buffer wash step.
The data were fit with the Biacore T200 Evaluation software, using a 1:1 Langmuir binding model. KD (affinity, nM) was determined as a ratio of the kinetic rate constants calculated from the fits of the association and dissociation phases.

| Binder | Bmax [1] | Kd [1] [nM] | IC50 [2] [nM] | Kd [3] [nM] | Kd [4] [nM] | koff [4] [s⁻¹] | kon [4] [M⁻¹ s⁻¹] |
| --- | --- | --- | --- | --- | --- | --- | --- |
| Construct G: aPD1 1353-G10 Fab_K × aLAG3 1449-G09.2 scFvFc_H (three-chain Fab x scFvFc) (bispecific antibody, human IgG1, lambda) heavy: not shown light: MSYELTQPPSVSVSPGQTARITCSGDALPKQYAYWYQQKPGQAPVMVIYKDTERPSGIPERFSGSSSGTKVTLTISGVQAEDEADYYCQSADNSITYRVFGGGTKVTVLGQPKAAPSVTLFPPSSEELQANKATLVCLISDFYPGAVTVAWKADSSPVKAGVETTTPSKQSNNKYAASSYLSLTPEQWKSHRSYSCQVTHEGSTVEKTVAPTECS scFv: not shown | 6380 | 0.8 | – | – | – | – | – |
| SRP1449-B03 (scFv, V domains shown) VH: QVQLVESGGGVVQPGRSLRLSCAASGFTFSSYGMHWVRQAPGKGLEWVAAIWYDASYKYYADSVKGRFTISRDNSKNTLYLQMNSLRAEDTAVYYCAREWAVASWDYALDVWGQGTTVTVSS VL: EIVLTQSPGTMSLSPGERATLSCRASQSVSSSYLAWYQQKPGQAPRLLIYGASSRATGIPDRFSGSGSGTDFTLTISRLEPEDFAVYYCQQYDRSPLTFGPGTKVDIK | – | – | 1 | 1.92 | 0.64 | 0.000302 | 472000 |

The next lines start with the values.

| Bmax [1] | Kd [1] [nM] | IC50 [2] [nM] | Kd [3] [nM] | Kd [4] [nM] | koff [4] [s⁻¹] | kon [4] [M⁻¹ s⁻¹] | Binder |
| --- | --- | --- | --- | --- | --- | --- | --- |
| 5460 | 0.4 | – | – | – | – | – | Construct H: aPD1 1353-G10 Fab_H × aLAG3 1449-G09.2 scFvFc_K (three-chain Fab x scFvFc) (bispecific antibody, human IgG1, lambda) heavy: not shown light: MSYELTQPPSVSVSPGQTARITCSGDALPKQYAYWYQQKPGQAPVMVIYKDTERPSGIPERFSGSSSGTKVTLTISGVQAEDEADYYCQSADNSITYRVFGGGTKVTVLGQPKAAPSVTLFPPSSEELQANKATLVCLISDFYPGAVTVAWKADSSPVKAGVETTTPSKQSNNKYAASSYLSLTPEQWKSHRSYSCQVTHEGSTVEKTVAPTECS scFv: not shown |
| – | – | 1.2 | 1.06 | 0.676 | 0.000536 | 794000 | SRP1449-B07 (scFv, V domains shown) VH: QVQLVESGGGVVQPGRSLRLSCAASGFTFSSYGMHWVRQAPGKGLEWVAVIWYDGSNKYYADSVKGRFTISRDNSKNTLYLQMNSLRAEDTAVYYCAREWAVSSWDYGMDVWGQGTTVTVSS VL: not shown |
| – | – | 64.3 | 18 | 10.3 | 0.000515 | 50200 | 421.61.4.5G11 (antibody, V domains shown) VH: EVQLQQSGAELVRSGASVKLSCTASGFNIKDYYMHWVKQRPEQGLEWIAWIDPENGDTEYAPKFQGRATLTADTSSNTAYLHLSSLTSEDTAVYYCNAPDALDYWGQGTSVTVSS VL: not shown |
